Assay results: US20240066131A1 (Protagonist Therapeutics, Inc., priority 2020, published 2024)
Starred links: 1 amine or outer side, 2 acyl side, 3 side chain; linkers in the order of their positions; H or OH if unused. Positions of bridges follow the written chain, without caps; N, C: chain ends. Non-standard residues stand in square brackets, D forms with d. Residues, ends and D or L forms follow the SMILES beside them. Groups on a side chain read outwards from the residue. No end group written: not given here. *: point of attachment. bhGly(phenylbutyl) = 3-((4-phenylbutyl)amino)propanoic acid, O=C(CCN(CCCCc1ccccc1)[*:1])[*:2]; Carnitine = carnitine group on the Lys side chain, C[N+](C)(C)C[C@H](O)CC(=O)*; Dip = N[C@H](C(=O)O)C(c1ccccc1)c1ccccc1; NH(4-phenylbutyl) = c1ccc(CCCCN*)cc1; Palmitoyl = CCCCCCCCCCCCCCCC(=O)*; β3hF = N[C@H](CC(=O)O)Cc1ccccc1; DMG_N_2ae = not defined here; NMeK = CN[C@@H](CCCCN)C(=O)O; Isovaleryl = CC(C)CC(=O)*; Orn = NCCC[C@H](N)C(=O)O; Dap = NC[C@H](N)C(=O)O; Ahx = NCCCCCC(=O)O

T1: human ferroportin (SLC40A1) fused in frame with GFP, stably expressed in HEK293 cells (human, UniProt Q9NP59 1-571)
T1 sequence (looked up): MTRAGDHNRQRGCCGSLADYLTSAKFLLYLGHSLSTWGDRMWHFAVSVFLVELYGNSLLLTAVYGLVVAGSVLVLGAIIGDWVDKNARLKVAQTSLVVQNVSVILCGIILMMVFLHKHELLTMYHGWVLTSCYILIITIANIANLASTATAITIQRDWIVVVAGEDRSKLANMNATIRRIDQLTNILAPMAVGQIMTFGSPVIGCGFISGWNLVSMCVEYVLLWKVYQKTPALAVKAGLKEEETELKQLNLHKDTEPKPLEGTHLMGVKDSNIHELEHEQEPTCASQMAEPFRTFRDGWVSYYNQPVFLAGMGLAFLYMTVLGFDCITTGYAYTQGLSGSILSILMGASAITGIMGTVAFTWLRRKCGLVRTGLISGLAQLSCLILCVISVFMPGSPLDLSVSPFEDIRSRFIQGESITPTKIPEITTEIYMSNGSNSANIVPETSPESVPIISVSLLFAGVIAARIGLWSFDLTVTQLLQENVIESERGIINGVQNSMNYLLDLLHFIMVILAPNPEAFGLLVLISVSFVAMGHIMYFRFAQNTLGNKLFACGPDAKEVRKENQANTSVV

T2: ferroportin (Homo sapiens, UniProt Q9NP59)
T2 sequence (Q9NP59 1-571): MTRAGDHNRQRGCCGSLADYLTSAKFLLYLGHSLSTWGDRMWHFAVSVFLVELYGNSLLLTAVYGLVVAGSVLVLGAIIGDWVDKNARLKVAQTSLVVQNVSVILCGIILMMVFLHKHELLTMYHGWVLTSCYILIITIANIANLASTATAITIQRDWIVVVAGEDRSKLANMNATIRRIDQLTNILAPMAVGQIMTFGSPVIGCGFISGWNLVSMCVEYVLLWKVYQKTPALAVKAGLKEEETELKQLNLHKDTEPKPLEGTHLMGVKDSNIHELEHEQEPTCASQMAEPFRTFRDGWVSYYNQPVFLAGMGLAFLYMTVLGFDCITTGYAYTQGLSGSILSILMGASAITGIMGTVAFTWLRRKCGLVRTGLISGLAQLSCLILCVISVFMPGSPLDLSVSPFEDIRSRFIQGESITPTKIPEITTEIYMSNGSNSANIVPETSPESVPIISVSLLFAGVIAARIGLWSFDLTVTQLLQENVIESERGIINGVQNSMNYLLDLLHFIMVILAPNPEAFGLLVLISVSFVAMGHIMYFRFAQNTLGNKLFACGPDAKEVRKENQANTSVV


target: T1, human ferroportin (SLC40A1) fused in …; test: cell-based or functional assay; details: not given

| IC50: FPN internalisation | Molecule |
| --- | --- |
| 5.41 nM | XETHXPXX (N-term Isovaleric Acid; Dpa4; Lys(Ahx_Palm)6; C-term Phenylbutyl Amine) [[Isovaleric Acid]-E-T-H-[Dpa]-P-[Lys(Ahx_Palm)]-[Phenylbutyl Amine]] |
| 10.7 nM | Isovaleryl-ETH[Dip]P[DMG_N_2ae][NMeK]([Ahx-Palmitoyl])[β3hF]-NH2 (reading uncertain) [[Isovaleric Acid]-E-T-H-[Dpa]-P-[DMG_N_2ae]-[N-MeLys(Ahx_Palm)]-[bhPhe]-NH2] |
| 5.9 nM | Isovaleryl-KTH[Dip]PAK(Carnitine)E[NMeK]([Ahx-Palmitoyl])-{NH(4-phenylbutyl)} (SMILES CCCCCCCCCCCCCCCC(=O)NCCCCCC(=O)NCCCC[C@@H](C(=O)NCCCCc1ccccc1)N(C)C(=O)[C@H](CCC(=O)O)NC(=O)[C@H](CCCCNC(=O)C[C@@H](O)C[N+](C)(C)C)NC(=O)[C@H](C)NC(=O)[C@@H]1CCCN1C(=O)[C@@H](NC(=O)[C@H](Cc1c[nH]cn1)NC(=O)[C@@H](NC(=O)[C@H](CCCCN)NC(=O)CC(C)C)[C@@H](C)O)C(c1ccccc1)c1ccccc1) [[Isovaleric Acid]-K-T-H-[Dpa]-P-A-[Lys(Carnitine)]-E-[N-MeLys(Ahx_Palm)]-[Phenylbutyl Amine]] |
| 13.6 nM | Isovaleryl-KTH[Dip]P[DMG_N_2ae]E[β3hF]K([Ahx-Palmitoyl])-NH2 (reading uncertain) [[Isovaleric Acid]-K-T-H-[Dpa]-P-[DMG_N_2ae]-E-[bhPhe]-[Lys(Ahx_Palm)]-NH2] |
| 201 nM | Isovaleryl-[Orn]TH[Dip]PAI[NMeK]([Ahx-Palmitoyl])[bhGly(phenylbutyl)] [[Isovaleric Acid]-[Orn]-T-H-[Dpa]-P-A-I-[N-MeLys(Ahx_Palm)]-[bhGly(phenylbutyl)]] |
| 10.7 nM | Isovaleryl-KTH[Dip]PAIE[β3hF]K([Ahx-Palmitoyl])K(Carnitine)-NH2 (SMILES CCCCCCCCCCCCCCCC(=O)NCCCCCC(=O)NCCCC[C@H](NC(=O)C[C@H](Cc1ccccc1)NC(=O)[C@H](CCC(=O)O)NC(=O)[C@@H](NC(=O)[C@H](C)NC(=O)[C@@H]1CCCN1C(=O)[C@@H](NC(=O)[C@H](Cc1c[nH]cn1)NC(=O)[C@@H](NC(=O)[C@H](CCCCN)NC(=O)CC(C)C)[C@@H](C)O)C(c1ccccc1)c1ccccc1)[C@@H](C)CC)C(=O)N[C@@H](CCCCNC(=O)C[C@@H](O)C[N+](C)(C)C)C(N)=O) [[Isovaleric Acid]-K-T-H-[Dpa]-P-A-I-E-[bhPhe]-[Lys(Ahx_Palm)]-[Lys(Carnitine)]-NH2] |
| 597 nM | Isovaleryl-[Dap]TH[Dip]PAI[NMeK]([Ahx-Palmitoyl])[bhGly(phenylbutyl)] [[Isovaleric Acid]-[Dap]-T-H-[Dpa]-P-A-I-[N-MeLys(Ahx_Palm)]-[bhGly(phenylbutyl)]] |
| 35.6 nM | XETHXPXXXX (N-term Isovaleric Acid; Dpa4; DMG_N_2ae6; (D)Lys7; bhPhe8; Lys(Ahx_Palm)9; C-term NH2) [[Isovaleric Acid]-E-T-H-[Dpa]-P-[DMG_N_2ae]-[(D)Lys]-[bhPhe]-[Lys(Ahx_Palm)]-NH2] |

target: T2, ferroportin; test: T47D cell-based ferroportin internalization assay in presence of mouse serum albumin (MSA), AF647 detection peptide, flow cytometry; set-up: a human breast carcinoma adherent cell line which endogenously expresses ferroportin; host or cells: T47D; details: second Table 6D, T47D/MSA data; with mouse serum albumin
Protocol: The potency of the peptides in causing ferroportin internalization was evaluated in a T47D cell-based assay. […] In this internalization assay, the potency of the test peptides was evaluated in presence of serum albumin which is the main protein component in the blood. T47D cells were maintained in RPMI media (containing required amount of fetal bovine serum) and regularly sub-cultured. […] The test peptide dilution series were allowed to incubate at room temperature for 30 min. Then the media was aspirated from the 96-well cell plate and test peptide dilution series were added. After 1 hr incubation, the media with test peptides was aspirated out and A1F647-conjugated detection peptide was added at fixed concentration of 200 nM. […] The cells were washed again after a 2 hr incubation in preparation for flow cytometry analysis. The Median Fluorescence Intensity (MFI) of the AF647-positive population was measured (after removing dead cells and non-singlets from the analysis). The MFI values were used to generate a dose-response curve and obtain IC50 potencies for the test peptides. The IC50 potencies were calculated by using 4-parameter non-linear fitting function in Graphpad Prism (Table 6D).

| IC50 | Molecule |
| --- | --- |
| 8.9 nM | CCCCCCCCCCCCCCCC(=O)NCCCCCC(=O)NCCCC[C@H](NC(=O)C[C@H](Cc1ccccc1)NC(=O)[C@H]1CCCCNC(=O)CC[C@H](NC(=O)CC(C)C)C(=O)N[C@@H]([C@@H](C)O)C(=O)N[C@@H](Cc2c[nH]cn2)C(=O)N[C@@H](C(c2ccccc2)c2ccccc2)C(=O)N2CCC[C@H]2C(=O)N[C@@H](C)C(=O)N[C@@H]([C@@H](C)CC)C(=O)N1)C(=O)N[C@@H](CCCNC(=N)N)C(N)=O [compound 56] (Isovaleryl-ETH[Dip]PAI[dK][β3hF]K([Ahx-Palmitoyl])R-NH2; lactam 1-8) |
| 10.6 nM | CCCCCCCCCCCCCCCC(=O)NCCCCCC(=O)NCCCC[C@H](NC(=O)[C@@H]1CCCCNC(=O)CC[C@H](NC(=O)CC(C)C)C(=O)N[C@@H]([C@@H](C)O)C(=O)N[C@@H](Cc2c[nH]cn2)C(=O)N[C@@H](C(c2ccccc2)c2ccccc2)C(=O)N2CCC[C@H]2C(=O)N[C@@H](C)C(=O)N[C@@H]([C@@H](C)CC)C(=O)N1)C(N)=O [compound 314] (Isovaleryl-ETH[Dip]PAIKK([Ahx-Palmitoyl])-NH2; lactam 1-8) |
| 31.2 nM | CCCCCCCCCCCCCCCC(=O)NCCCCCC(=O)NCCCC[C@H](NC(=O)[C@@H]1CCC(=O)NCCCC[C@H](NC(=O)CC(C)C)C(=O)N[C@@H]([C@@H](C)O)C(=O)N[C@@H](Cc2c[nH]cn2)C(=O)N[C@@H](C(c2ccccc2)c2ccccc2)C(=O)N2CCC[C@H]2C(=O)N[C@@H](C)C(=O)N[C@@H]([C@@H](C)CC)C(=O)N1)C(N)=O [compound 309] (Isovaleryl-KTH[Dip]PAIEK([Ahx-Palmitoyl])-NH2; lactam 1-8) |
